Measured values published in US20230220074A1 (Alector, published 2023).

B1: hPA-001 (antibody, V domains shown)
VH: QVTLKESGPGILQPSQTLSLTCSFSGFSLTTFGMGVGWIRQPSGKGLEWLAHIWWDDDKYYNPALKSRLTISKDISKNQVFLKIANVDTADTATYYCARIEDYGNPFDYWGQGTTLTVSS
VL: DIQMNQSPSSLSASLGDTITITCHASQNIHVWLSWYQQKPGNIPKLLIYKASNLHTGVPSRFSGSGSGTGFTLTISSLQPEDIATYYCQQGQSYPLTFGAGTKLELK
notes: Mouse hybridoma antibody, tested as conditioned medium
B2: hPA-004 (antibody, V domains shown)
VH: QVTLKESGPGMLQPSQTLSLACSFSGFSLNSFGVAVGWIRQPSGKGLEWLAHIWWDDDKSYNPALKSRLTISKDTSKNQVFLKLANVDTADTATYYCTRIADYGNHFDYWGQGTALTVSS
VL: DIQMNQSPSSLSASLGDTITITCHASQNSHVWLSWYQQKPGNIPKLLIYKASNLHTGVPSRFSGSGSGTGFTLTISGLQPEDIATYYCQQGQTYPFTFGSGTKLEIK
notes: Mouse hybridoma antibody, tested as conditioned medium or purified
B3: hPA-005 (antibody, V domains shown)
VH: QVILKESGPGILQSSQTLSLTCSFSGFSLSTFGMGVGWIRQPSGKGLESLAHIWWDDDKFYNPALKSRLTISKDTSKSQVFLKIANVDTADIATYYCTRIEDYGSYFAYWGQGTTLTVSS
VL: DVQMNQSPSSLSASLGDPITITCHASQNIHVWLNWYQQRPGNIPRLLIYKASNLHTGVPSRFSGSGSGTGFTLTISSLQPEDIATYYCQQGQSYPYTFGGGTKLEIK
notes: as for B2
B4: hPA-002 (antibody, V domains shown)
VH: QVTLQESGPGILQPSQTLSLTCSFSGFSLSTFGMGVGWIRQPSGKGLEWLAHIWWDDDKYYNPALKSRLTISKDTSKNQVFLKIASVDTADIATYYCARVEDYGNPFDYWGQGTTLTVSS
VL: DIQMNQSPSSLSASLGDTITITCHASQNIHVWLNWYQQKPGNIPKLLIYKASNLHTGVPSRFSGSGSGTGFTVTISSLQPEDIATYYCQQGQSYPLTFGAGTKLELK
notes: Mouse hybridoma antibody, tested as conditioned medium or purified; also called hPA-002 A647

How the values were obtained:
murine PILRA [1] = molecular target: T1, murine PILRA (mouse, UniProt Q2YFS3 32-302); test: flow cytometry, hybridoma conditioned medium on 293 cells expressing the target; MFI relative to 293 parental cells
T1 construct: Ectopically expressed on 293 cells; also called mPILRA; mouse PILRA
Protocol: (§1) Antibodies against human PILRA were generated as follows. […] PILRA^{-/-} PILRB1^{-/-} PILRB2^{-/-} mice were immunized with human PILRA protein, and hybridomas prepared using standard methods. 300 conditioned media samples containing antibodies were assessed for binding to parental 293 cells or 293 cells ectopically expressing hPILRA, hPILRB, cPILRA, mPILRA, or mPILRB by FACS. […] Six antibodies were identified as human PILRA binders using a cutoff of greater than 5-fold binding. […] No antibody was identified that bound mouse PILRA.

murine PILRB (mPILRB1) = molecular target: T2, murine PILRB (mPILRB1) (mouse, UniProt Q2YFS2 29-224); test: as above
T2 construct: whole, on cells; Ectopically expressed on 293 cells; also called mouse PILRB
Protocol: as §1

human PILRA = molecular target: T3, human PILRA (human, UniProt Q9UKJ1 20-303); test: as above
T3 construct: also called hPILRA
Protocol: as §1

human PILRB = molecular target: T4, human PILRB (human, UniProt Q9UKJ0 20-227); test: as above
T4 construct: Ectopically expressed on 293 cells; also called hPILRB
Protocol: as §1

cynomolgus monkey PILRA = molecular target: T5, cynomolgus monkey PILRA (cynomolgus monkey); test: as above
T5 construct: Ectopically expressed on 293 cells; also called cPILRA
Protocol: as §1

murine PILRA [2] = molecular target: T1, murine PILRA; test: flow cytometry, conditioned medium on 293 cells expressing the target
Protocol: as §1

[3] = molecular target: T6, soluble human PILRA hIgG1 Fc construct (human); test: flow cytometry; blocking of PILRA Fc binding to human CD3+ T cells, 3 donors, average ± SEM
T6 construct: also called PILRA Fc; PILRA-Fc
Protocol: Purified anti-hPILRA antibodies were evaluated for their ability to block binding of PILRA Fc to human CD3+ T cells from 3 separate donors in order to calculate the ligand blocking potency of these antibodies.

T5 sequence (chain, as listed by the source): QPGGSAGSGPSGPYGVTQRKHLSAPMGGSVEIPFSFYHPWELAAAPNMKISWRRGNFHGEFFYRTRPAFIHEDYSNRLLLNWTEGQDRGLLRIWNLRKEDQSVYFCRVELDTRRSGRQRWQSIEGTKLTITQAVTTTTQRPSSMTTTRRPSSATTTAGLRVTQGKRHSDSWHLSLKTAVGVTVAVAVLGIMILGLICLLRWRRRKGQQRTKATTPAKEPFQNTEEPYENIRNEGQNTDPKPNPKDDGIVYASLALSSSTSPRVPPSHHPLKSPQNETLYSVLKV
T1 sequence (Q2YFS3 32-302): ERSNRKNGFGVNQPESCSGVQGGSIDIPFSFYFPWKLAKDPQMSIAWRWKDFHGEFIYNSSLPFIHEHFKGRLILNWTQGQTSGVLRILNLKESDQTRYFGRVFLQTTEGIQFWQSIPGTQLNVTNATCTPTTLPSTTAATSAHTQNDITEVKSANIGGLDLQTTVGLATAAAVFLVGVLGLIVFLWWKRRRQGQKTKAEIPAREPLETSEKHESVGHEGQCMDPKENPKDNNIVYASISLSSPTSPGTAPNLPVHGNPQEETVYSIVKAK
T3 sequence (Q9UKJ1 20-303): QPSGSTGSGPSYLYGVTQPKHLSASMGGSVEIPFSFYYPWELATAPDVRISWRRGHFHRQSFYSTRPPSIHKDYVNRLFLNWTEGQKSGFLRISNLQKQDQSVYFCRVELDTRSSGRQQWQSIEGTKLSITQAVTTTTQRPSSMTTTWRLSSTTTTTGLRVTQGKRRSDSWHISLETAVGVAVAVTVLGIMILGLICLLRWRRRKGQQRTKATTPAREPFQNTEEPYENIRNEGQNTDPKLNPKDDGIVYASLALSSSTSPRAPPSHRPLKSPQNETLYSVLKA
T4 sequence (Q9UKJ0 20-227): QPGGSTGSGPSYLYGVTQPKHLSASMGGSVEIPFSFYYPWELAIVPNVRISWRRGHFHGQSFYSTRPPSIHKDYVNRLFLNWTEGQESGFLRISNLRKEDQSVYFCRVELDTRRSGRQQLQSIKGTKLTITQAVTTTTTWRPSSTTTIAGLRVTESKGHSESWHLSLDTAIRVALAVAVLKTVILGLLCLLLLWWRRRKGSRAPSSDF
T6 sequence (chain, as listed by the source limits assumed): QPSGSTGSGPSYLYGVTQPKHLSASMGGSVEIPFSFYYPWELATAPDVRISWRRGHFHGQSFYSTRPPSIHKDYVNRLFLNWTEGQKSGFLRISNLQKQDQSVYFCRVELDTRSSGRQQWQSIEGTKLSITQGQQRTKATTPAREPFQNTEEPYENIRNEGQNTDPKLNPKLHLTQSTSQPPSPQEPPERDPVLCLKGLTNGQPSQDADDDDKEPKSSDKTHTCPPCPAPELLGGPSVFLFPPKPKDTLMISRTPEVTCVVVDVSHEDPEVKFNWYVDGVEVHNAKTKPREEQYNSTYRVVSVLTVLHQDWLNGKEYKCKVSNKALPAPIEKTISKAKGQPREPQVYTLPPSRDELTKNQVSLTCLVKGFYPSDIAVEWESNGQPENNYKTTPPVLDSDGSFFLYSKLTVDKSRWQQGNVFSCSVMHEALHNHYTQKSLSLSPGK
T2 sequence (Q2YFS2 29-224): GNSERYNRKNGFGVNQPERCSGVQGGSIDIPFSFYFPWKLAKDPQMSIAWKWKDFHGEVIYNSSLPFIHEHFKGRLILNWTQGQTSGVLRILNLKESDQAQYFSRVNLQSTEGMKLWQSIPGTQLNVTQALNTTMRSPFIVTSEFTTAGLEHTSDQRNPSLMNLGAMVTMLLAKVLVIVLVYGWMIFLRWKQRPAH

Binder	MFI relative to 293 parental cells (murine PILRA [1])	MFI relative to 293 parental cells (murine PILRB (mPILRB1))	MFI relative to 293 parental cells (human PILRA)	MFI relative to 293 parental cells (human PILRB)	MFI relative to 293 parental cells (cynomolgus monkey PILRA)	binding result (murine PILRA [2])	IC50 [3] [nM]
B1	0.5 fold over 293 parental cells	0.5 fold over 293 parental cells	131 fold over 293 parental cells	1.3 fold over 293 parental cells	0.5 fold over 293 parental cells	no binding (tested: cutoff of greater than 5-fold binding)	–
B2	0.6 fold over 293 parental cells	0.6 fold over 293 parental cells	83.9 fold over 293 parental cells	–	–	no binding (tested: cutoff of greater than 5-fold binding)	1.7
B3	0.4 fold over 293 parental cells	0.5 fold over 293 parental cells	104 fold over 293 parental cells	1.3 fold over 293 parental cells	0.5 fold over 293 parental cells	no binding (tested: cutoff of greater than 5-fold binding)	1.9
B4	0.3 fold over 293 parental cells	0.3 fold over 293 parental cells	133 fold over 293 parental cells	1.2 fold over 293 parental cells	0.3 fold over 293 parental cells	no binding (tested: cutoff of greater than 5-fold binding)	0.75
